Data published in the supplement of paper PMC5998384.

Experiments:
HeLa Kyoto [1] = assay: solubility in G1/S (NP-40 vs SDS abundance) (log2 ratio); higher = more soluble; details: cell cycle stage: G1/S
HeLa Kyoto [2] = assay: solubility change mitosis vs G1/S (difference of NP-40 vs SDS log2 ratios) (log2 ratio difference); higher = more soluble in mitosis
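Wherever solubility change mitosis vs G1/S (difference of NP-40 vs SDS log2 ratios) is given: synchronized HeLa Kyoto cells (double thymidine block for G1/S, nocodazole release for mitosis), protein amounts in NP-40 versus SDS lysates quantified by mass spectrometry, three biological replicates.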
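Wherever solubility in G1/S (NP-40 vs SDS abundance) is given: HeLa Kyoto cells arrested at G1/S by double thymidine block, proteins quantified by TMT10plex mass spectrometry in mild NP-40 versus SDS extracts, three biological replicates.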

Sequence: MNQFGPSALINLSNFSSIKPEPASTPPQGSMANSTAVVKIPGTPGAGGRLSPENNQVLTKKKLQDLVREVDPNEQLDEDVEEMLLQIADDFIESVVTAACQLARHRKSSTLEVKDVQLHLERQWNMWIPGFGSEEIRPYKKACTTEAHKQRMALIRKTTKK [TAF12]
- solubility in G1/S (log2) (HeLa Kyoto [1]): -0.0469
- solubility change mitosis (log2) (HeLa Kyoto [2]): 0.151

Sequence: MNRVLCAPAAGAVRALRLIGWASRSLHPLPGSRDRAHPAAEEEDDPDRPIEFSSSKANPHRWSVGHTMGKGHQRPWWKVLPLSCFLVALIIWCYLREESEADQWLRQVWGEVPEPSDRSEEPETPAAYRART [CCSMST1]
- solubility in G1/S (log2) (HeLa Kyoto [1]): -0.299
- solubility change mitosis (log2) (HeLa Kyoto [2]): 0.566

Sequence: MPDQALQQMLDRSCWVCFATDEDDRTAEWVRPCRCRGSTKWVHQACLQRWVDEKQRGNSTARVACPQCNAEYLIVFPKLGPVVYVLDLADRLISKACPFAAAGIMVGSIYWTAVTYGAVTVMQVVGHKEGLDVMERADPLFLLIGLPTIPVMLILGKMIRWEDYVLRLWRKYSNKLQILNSIFPGIGCPVPRIPAEANPLADHVSATRILCGALVFPTIATIVGKLMFSSVNSNLQRTILGGIAFVAIKGAFKVYFKQQQYLRQAHRKILNYPEQEEA [MARCH5]
- solubility in G1/S (log2) (HeLa Kyoto [1]): -0.272
- solubility change mitosis (log2) (HeLa Kyoto [2]): 0.0312

Sequence: MPGAGARAEEGGGGGEGAAQGAAAEPGAGPAREPARLCGYLQKLSGKGPLRGYRSRWFVFDARRCYLYYFKSPQDALPLGHLDIADACFSYQGPDEAAEPGTEPPAHFQVHSAGAVTVLKAPNRQLMTYWLQELQQKRWEYCNSLDMVKWDSRTSPTPGDFPKGLVARDNTDLIYPHPNASAEKARNVLAVETVPGELVGEQAANQPAPGHPNSINFYSLKQWGNELKNSMSSFRPGRGHNDSRRTVFYTNEEWELLDPTPKDLEESIVQEEKKKLTPEGNKGVTGSGFPFDFGRNPYKGKRPLKDIIGSYKNRHSSGDPSSEGTSGSGSVSIRKPASEMQLQVQSQQEELEQLKKDLSSQKELVRLLQQTVRSSQYDKYFTSSRLCEGVPKDTLELLHQKDDQILGLTSQLERFSLEKESLQQEVRTLKSKVGELNEQLGMLMETIQAKDEVIIKLSEGEGNGPPPTVAPSSPSVVPVARDQLELDRLKDNLQGYKTQNKFLNKEILELSALRRNAERRERDLMAKYSSLEAKLCQIESKYLILLQEMKTPVCSEDQGPTREVIAQLLEDALQVESQEQPEQAFVKPHLVSEYDIYGFRTVPEDDEEEKLVAKVRALDLKTLYLTENQEVSTGVKWENYFASTVNREMMCSPELKNLIRAGIPHEHRSKVWKWCVDRHTRKFKDNTEPGHFQTLLQKALEKQNPASKQIELDLLRTLPNNKHYSCPTSEGIQKLRNVLLAFSWRNPDIGYCQGLNRLVAVALLYLEQEDAFWCLVTIVEVFMPRDYYTKTLLGSQVDQRVFRDLMSEKLPRLHGHFEQYKVDYTLITFNWFLVVFVDSVVSDILFKIWDSFLYEGPKVIFRFALALFKYKEEEILKLQDSMSIFKYLRYFTRTILDARKLISISFGDLNPFPLRQIRNRRAYHLEKVRLELTELEAIREDFLRERDTSPDKGELVSDEEEDT [TBC1D2B]
- solubility in G1/S (log2) (HeLa Kyoto [1]): -0.186
- solubility change mitosis (log2) (HeLa Kyoto [2]): -0.0456

Sequence: MPGEEEERAFLVAREELASALRRDSGQAFSLEQLRPLLASSLPLAARYLQLDAARLVRCNAHGEPRNYLNTLSTALNILEKYGRNLLSPQRPRYWRGVKFNNPVFRSTVDAVQGGRDVLRLYGYTEEQPDGLSFPEGQEEPDEHQVATVTLEVLLLRTELSLLLQNTHPRQQALEQLLEDKVEDDMLQLSEFDPLLREIAPGPLTTPSVPGSTPGPCFLCGSAPGTLHCPSCKQALCPACDHLFHGHPSRAHHLRQTLPGVLQGTHLSPSLPASAQPRPQSTSLLALGDSSLSSPNPASAHLPWHCAACAMLNEPWAVLCVACDRPRGCKGLGLGTEGPQGTGGLEPDLARGRWACQSCTFENEAAAVLCSICERPRLAQPPSLVVDSRDAGICLQPLQQGDALLASAQSQVWYCIHCTFCNSSPGWVCVMCNRTSSPIPAQHAPRPYASSLEKGPPKPGPPRRLSAPLPSSCGDPEKQRQDKMREEGLQLVSMIREGEAAGACPEEIFSALQYSGTEVPLQWLRSELPYVLEMVAELAGQQDPGLGAFSCQEARRAWLDRHGNLDEAVEECVRTRRRKVQELQSLGFGPEEGSLQALFQHGGDVSRALTELQRQRLEPFRQRLWDSGPEPTPSWDGPDKQSLVRRLLAVYALPSWGRAELALSLLQETPRNYELGDVVEAVRHSQDRAFLRRLLAQECAVCGWALPHNRMQALTSCECTICPDCFRQHFTIALKEKHITDMVCPACGRPDLTDDTQLLSYFSTLDIQLRESLEPDAYALFHKKLTEGVLMRDPKFLWCAQCSFGFIYEREQLEATCPQCHQTFCVRCKRQWEEQHRGRSCEDFQNWKRMNDPEYQAQGLAMYLQENGIDCPKCKFSYALARGGCMHFHCTQCRHQFCSGCYNAFYAKNKCPEPNCRVKKSLHGHHPRDCLFYLRDWTALRLQKLLQDNNVMFNTEPPAGARAVPGGGCRVIEQKEVPNGLRDEACGKETPAGYAGLCQAHYKEYLVSLINAHSLDPATLYEVEELETATERYLHVRPQPLAGEDPPAYQARLLQKLTEEVPLGQSIPRRRK [RNF31]
- solubility in G1/S (log2) (HeLa Kyoto [1]): -0.0767
- solubility change mitosis (log2) (HeLa Kyoto [2]): -0.0502

Sequence: MPGRAEAGEAEEEAGAGSGSEAEEDALWERIEGVRHRLARALNPAKLTPYLRQCRVIDEQDEEEVLSTYRFPCRVNRTGRLMDILRCRGKRGYEAFLEALEFYYPEHFTLLTGQEPAQRCSMILDEEGPEGLTQFLMTEVRRLREARKSQLQREQQLQARGRVLEEERAGLEQRLRDQQQAQERCQRLREDWEAGSLELLRLKDENYMIAMRLAQLSEEKNSAVLRSRDLQLAVDQLKLKVSRLEEECALLRRARGPPPGAEEKEKEKEKEKEPDNVDLVSELRAENQRLTASLRELQEGLQQEASRPGAPGSERILLDILEHDWREAQDSRQELCQKLHAVQGELQWAEELRDQYLQEMEDLRLKHRTLQKDCDLYKHRMATVLAQLEEIEKERDQAIQSRDRIQLQYSQSLIEKDQYRKQVRGLEAERDELLTTLTSLEGTKALLEVQLQRAQGGTCLKACASSHSLCSNLSSTWSLSEFPSPLGGPEATGEAAVMGGPEPHNSEEATDSEKEINRLSILPFPPSAGSILRRQREEDPAPPKRSFSSMSDITGSVTLKPWSPGLSSSSSSDSVWPLGKPEGLLARGCGLDFLNRSLAIRVSGRSPPGGPEPQDKGPDGLSFYGDRWSGAVVRRVLSGPGSARMEPREQRVEAAGLEGACLEAEAQQRTLLWNQGSTLPSLMDSKACQSFHEALEAWAKGPGAEPFYIRANLTLPERADPHALCVKAQEILRLVDSAYKRRQEWFCTRVDPLTLRDLDRGTVPNYQRAQQLLEVQEKCLPSSRHRGPRSNLKKRALDQLRLVRPKPVGAPAGDSPDQLLLEPCAEPERSLRPYSLVRPLLVSALRPVVLLPECLAPRLIRNLLDLPSSRLDFQVCPAESLSGEELCPSSAPGAPKAQPATPGLGSRIRAIQESVGKKHCLLELGARGVRELVQNEIYPIVIHVEVTEKNVREVRGLLGRPGWRDSELLRQCRGSEQVLWGLPCSWVQVPAHEWGHAEELAKVVRGRILQEQARLVWVECGSSRGCPSSSEA [CARD10]
- solubility in G1/S (log2) (HeLa Kyoto [1]): -0.0585
- solubility change mitosis (log2) (HeLa Kyoto [2]): 0.0575

Sequence: MPLLVEGRRVRLPQSAGDLVRAHPPLEERARLLRGQSVQQVGPQGLLYVQQRELAVTSPKDGSISILGSDDATTCHIVVLRHTGNGATCLTHCDGTDTKAEVPLIMNSIKSFSDHAQCGRLEVHLVGGFSDDRQLSQKLTHQLLSEFDRQEDDIHLVTLCVTELNDREENENHFPVIYGIAVNIKTAEIYRASFQDRGPEEQLRAARTLAGGPMISIYDAETEQLRIGPYSWTPFPHVDFWLHQDDKQILENLSTSPLAEPPHFVEHIRSTLMFLKKHPSPAHTLFSGNKALLYKKNEDGLWEKISSPGS [NTAN1]
- solubility in G1/S (log2) (HeLa Kyoto [1]): -0.142
- solubility change mitosis (log2) (HeLa Kyoto [2]): 0.176

Sequence: MPLPGGLWWLLCCRRGFTLLHRDYGDGELSGDGDEDEDEETFELRTPSPAGGGRGPLEVTLTQPVRSGPVSNRLQSWEETWSLIPEKGLPEDDPDIVVKGWLYREPRGGGARPWLPPRRAWFVLTRDSLDQFSSSGKGARRLGSLVLTSLCSVTGPERRRKETGLWSVTVSGRKHSVRLCSPRQAEAERWGVALREVIASKAPLETPTQLLLRDIQESCGDPEAVALIYLRNPILRHTSGALYAPLLPLPYGVSAPGPGYAPLREEAVRLFLALQALEGARRPGPLMQGVLQTCRDLPALRDELFLQLAKQTSGPAGPPGLPATQDPAALRYWQLLTCMSCTFRPGGAVRGHLLGHLERTEQALPDSELAEYARFIRKALGRTRGRELVPSLAEISALSQRQELLCTVHCPGAGACAVAIDSHTTAGEVARELVGRLGLARSRNAFALYEQRGAQERALAGGTLVADVLTRFENLAAEEAGLEDSPDSGWRLCLRLHGPLHPEGLSPDGHELPFLFEQAHALLLRGRPPPPDDTLRALAALRLQSLQRDFSPRVPLPRLDRLLPPPAPPREDPPRPTPRPPPSAALLAGALWSPGLAKRRAERARRGGAGRTAGSIAREGGGGAGTAAAVLGGWKRLRGMGRAEAMAAYLALAAQCPGFGAARYDVLELSTEPGRGAPQKLCLGLGAKAMSLSRPGETEPIHSVSYGHVAACQLMGPHTLALRVGESQLLLQSPQVEEIMQLVNAYLANPSPERPCSSSSPPCQDLPDTSPPSQRPGLDEPQGQSGCLGQLQD [PLEKHH3]
- solubility in G1/S (log2) (HeLa Kyoto [1]): 0.00769
- solubility change mitosis (log2) (HeLa Kyoto [2]): -0.16

Sequence: MPLRDKYCQTDHHHHGCCEPVYILEPGDPPLLQQPLQTSKSGIQQIIECFRSGTKQLKHILLKDVDTIFECKLCRSLFRGLPNLITHKKFYCPPSLQMDDNLPDVNDKQSQAINDLLEAIYPSVDKREYIIKLEPIETNQNAVFQYISRTDNPIEVTESSSTPEQTEVQIQETSTEQSKTVPVTDTEVETVEPPPVEIVTDEVAPTSDEQPQESQADLETSDNSDFGHQLICCLCRKEFNSRRGVRRHIRKVHKKKMEELKKYIETRKNPNQSSKGRSKNVLVPLSRSCPVCCKSFATKANVRRHFDEVHRGLRRDSITPDIATKPGQPLFLDSISPKKSFKTRKQKSSSKAEYNLTACKCLLCKRKYSSQIMLKRHMQIVHKITLSGTNSKREKGPNNTANSSEIKVKVEPADSVESSPPSITHSPQNELKGTNHSNEKKNTPAAQKNKVKQDSESPKSTSPSAAGGQQKTRKPKLSAGFDFKQLYCKLCKRQFTSKQNLTKHIELHTDGNNIYVKFYKCPLCTYETRRKRDVIRHITVVHKKSSRYLGKITASLEIRAIKKPIDFVLNKVAKRGPSRDEAKHSDSKHDGTSNSPSKKYEVADVGIEVKVTKNFSLHRCNKCGKAFAKKTYLEHHKKTHKANASNSPEGNKTKGRSTRSKALV [ZNF800]
- solubility in G1/S (log2) (HeLa Kyoto [1]): -3.34
- solubility change mitosis (log2) (HeLa Kyoto [2]): 1.43

Sequence: MPLTGVGPGSCRRQIIRALCLLLLLLHAGSAKNIWKRALPARLAEKSRAEEAGAPGGPRQPRADRCPPPPRTLPPGACQAARCQADSECPRHRRCCYNGCAYACLEAVPPPPVLDWLVQPKPRWLGGNGWLLDGPEEVLQAEACSTTEDGAEPLLCPSGYECHILSPGDVAEGIPNRGQCVKQRRQADGRILRHKLYKEYPEGDSKNVAEPGRGQQKHFQ [WFDC1]
- solubility in G1/S (log2) (HeLa Kyoto [1]): 0.101
- solubility change mitosis (log2) (HeLa Kyoto [2]): 0.522
